{"source": "paper PMC4491177", "about": "“Co-translational capturing of nascent ribosomal proteins by their dedicated chaperones” (Nature Communications, 2015)", "molecules": {"B1": {"name": "Sqt1-TAP (natural protein, S. cerevisiae, UniProt P35184 1-431, looked up)", "chain": "MEPQEEFITTEEVEQEIVPTVEVEQDVPVDIEGENDDDDEMMNDDEEALEVDMSNNSLTYFDKHTDSVFAIGHHPNLPLVCTGGGDNLAHLWTSHSQPPKFAGTLTGYGESVISCSFTSEGGFLVTADMSGKVLVHMGQKGGAQWKLASQMQEVEEIVWLKTHPTIARTFAFGATDGSVWCYQINEQDGSLEQLMSGFVHQQDCSMGEFINTDKGENTLELVTCSLDSTIVAWNCFTGQQLFKITQAEIKGLEAPWISLSLAPETLTKGNSGVVACGSNNGLLAVINCNNGGAILHLSTVIELKPEQDELDASIESISWSSKFSLMAIGLVCGEILLYDTSAWRVRHKFVLEDSVTKLMFDNDDLFASCINGKVYQFNARTGQEKFVCVGHNMGVLDFILLHPVANTGTEQKRKVITAGDEGVSLVFEVPN"}, "B2": {"name": "Sqt1 Glu315 to lysine: Sqt1 variant, Glu315 mutated to lysine (protein, UniProt P35184 1-431, looked up, variant E315K)", "Ribosome assembly protein SQT1": "MEPQEEFITTEEVEQEIVPTVEVEQDVPVDIEGENDDDDEMMNDDEEALEVDMSNNSLTYFDKHTDSVFAIGHHPNLPLVCTGGGDNLAHLWTSHSQPPKFAGTLTGYGESVISCSFTSEGGFLVTADMSGKVLVHMGQKGGAQWKLASQMQEVEEIVWLKTHPTIARTFAFGATDGSVWCYQINEQDGSLEQLMSGFVHQQDCSMGEFINTDKGENTLELVTCSLDSTIVAWNCFTGQQLFKITQAEIKGLEAPWISLSLAPETLTKGNSGVVACGSNNGLLAVINCNNGGAILHLSTVIELKPEQDELDASIKSISWSSKFSLMAIGLVCGEILLYDTSAWRVRHKFVLEDSVTKLMFDNDDLFASCINGKVYQFNARTGQEKFVCVGHNMGVLDFILLHPVANTGTEQKRKVITAGDEGVSLVFEVPN"}, "B3": {"name": "Yar1-TAP (natural protein)", "chain": "MGLHSEPLDQEDQDTIILDARAGDLDSLKDIFTTLVSPELLSTCKESESDSTALHMAAANGHIETVRYILETVSRANSAEDLKAFVNEVNKTGNTALHWASLNGKLDVVKLLCDEYEADPFIRNKFGHDAIFEAENSGKEEVETYFLKKYDVEPEDDEEDTQTEGKNSVQITKGTEIEQVTKEATEALREETEKLNINKD"}, "B4": {"name": "NTAP-Rrb1 (natural protein, S. cerevisiae, UniProt Q04225 1-511, looked up)", "chain": "MSKRSIEVNEEQDRVVSAKTESHSVPAIPASEEQDAPKNDLEEQLSDEFDSDGEIIEIDGDDEINDEDDLRKKQEEAETLVQKDQSEGNKEKIQELYLPHMSRPLGPDEVLEADPTVYEMLHNVNMPWPCLTLDVIPDTLGSERRNYPQSILLTTATQSSRKKENELMVLALSNLAKTLLKDDNEGEDDEEDDEDDVDPVIENENIPLRDTTNRLKVSPFAISNQEVLTATMSENGDVYIYNLAPQSKAFSTPGYQIPKSAKRPIHTVKNHGNVEGYGLDWSPLIKTGALLSGDCSGQIYFTQRHTSRWVTDKQPFTVSNNKSIEDIQWSRTESTVFATAGCDGYIRIWDTRSKKHKPAISVKASNTDVNVISWSDKIGYLLASGDDNGTWGVWDLRQFTPSNADAVQPVAQYDFHKGAITSIAFNPLDESIVAVGSEDNTVTLWDLSVEADDEEIKQQAAETKELQEIPPQLLFVHWQKEVKDVKWHKQIPGCLVSTGTDGLNVWKTISV"}, "B5": {"name": "Syo1-FTpA (natural protein)", "chain": "MGRSKKRSRASSSRLNPLRKAGSNDNNKDTNVVNKKLQPLLQNLSSVVPNDRSIALSSISVLCEDAHMRQLLLKEKLVPIILNKLLNDSNSDIVVESFGLLRNLSLEEGYDVSIYLWRSDIWTSITSNFGRIVESLSALQAAEQQPQLKPAGKSKIESKRLLFDFADNLLSLVVALSNGSDDILNEILTESKINEIFQVISQLLKYGVEKLPINLFNTTLDLIYDLSSESFEFIDHVSNNELLSQFLNGLSPALHPQANELTKVLIEGIHCQFLDMKITYDQCNKMIHSVCHSINNIDPVQLVNDINNPVEIGPATSKDESSKVITKIKDYNAKRNESMIKLQSIEIAIDLITAIIEIVASKYESPESQEVAIPEELINTLTNFLPHVFMILKDTFTSRILIGWNNLIWLFVSLSLTELSGELLTTLWSYVTQLDSQDDLSIKIGRMGCIWALLKLIFPDGAFESENRALINVQMLNNSGFARGIIEEFQNNNDLELQQKCINVLSTYAMIQGQIDANKEIGQFFIQTLTQLNVRPEILIEMTNSLFQIYGDASYDYNEPIFVRGGFLSILKDQVVPNLRQQFKMVDKNKNPELKERCHDCFTTLDSFIHYKMNENSTNQ"}, "B6": {"name": "full-length Rpl10: full-length ribosomal protein Rpl10 (protein)", "chain": "MARRPARCYRYQKNKPYPKSRYNRAVPDSKIRIYDLGKKKATVDEFPLCVHLVSNELEQLSSEALEAARICANKYMTTVSGRDAFHLRVRVHPFHVLRINKMLSCAGADRLQQGMRGAWGKPHGLAARVDIGQIIFSVRTKDSNKDVVVEGLRRARYKFPGQQKIILSKKWGFTNLDRPEYLKKREAGEVKDDGAFVKFLSKKGSLENNIREFPEYFAAQA", "modifications": "left off: Gal4 DNA-binding domain or Gal4 activation domain (which of the two is not stated), end not stated, kept"}, "B7": {"name": "Sqt1 (53C construct): WD-repeat β-propeller domain of Sqt1; deletion of amino acids 1–52 (protein)", "chain": "MSNNSLTYFDKHTDSVFAIGHHPNLPLVCTGGGDNLAHLWTSHSQPPKFAGTLTGYGESVISCSFTSEGGFLVTADMSGKVLVHMGQKGGAQWKLASQMQEVEEIVWLKTHPTIARTFAFGATDGSVWCYQINEQDGSLEQLMSGFVHQQDCSMGEFINTDKGENTLELVTCSLDSTIVAWNCFTGQQLFKITQAEIKGLEAPWISLSLAPETLTKGNSGVVACGSNNGLLAVINCNNGGAILHLSTVIELKPEQDELDASIESISWSSKFSLMAIGLVCGEILLYDTSAWRVRHKFVLEDSVTKLMFDNDDLFASCINGKVYQFNARTGQEKFVCVGHNMGVLDFILLHPVANTGTEQKRKVITAGDEGVSLVFEVPN"}}, "key": {"Rrb1": {"system": "Rrb1", "assay": "Y2H interaction with Rrb1", "type": "binding, S. cerevisiae", "conditions": "reporter strain PJ69-4A, HIS3 and ADE2 reporters, 3 days at 30 °C", "procedure": "(§1) For Y2H interaction assays, plasmids expressing bait proteins, fused to the Gal4 DNA-binding domain (G4BD), and prey proteins, fused to the Gal4 activation domain (G4AD), were co-transformed into reporter strain PJ69-4A. Y2H interactions were documented by spotting representative transformants in 10-fold serial dilution steps onto SC-Trp-Leu, SC-Trp-Leu-His (HIS3 reporter) and SC-Trp-Leu-Ade (ADE2 reporter) plates, which were incubated for 3 days at 30 °C. Growth on SC-Trp-Leu-His plates is indicative of a weak/moderate interaction, whereas only relatively strong interactions permit growth on SC-Trp-Leu-Ade plates."}, "[1]": {"molecular_target": "CtSqt1.52C (WD-repeat β-propeller domain of ctSqt1)", "assay": "isothermal titration calorimetry (ITC), C. thermophilum", "type": "binding, Chaetomium thermophilum", "procedure": "ITC experiments were performed on a MicroCal ITC 2000 instrument (GE Healthcare). The following peptides, corresponding to the N-terminal 19 (without N-terminal methionine) or 20 amino acids of S. cerevisiae and C. thermophilum Rpl10, were synthesized with a free acid group at the C terminus (peptides&elephants): Rpl10(1–20) NH2-[…]-COOH, Rpl10(2–20) NH2-[…]-COOH, ctRpl10(1–20) NH2-[…]-COOH and ctRpl10(2–20) NH2-[…]-COOH. Peptides (1 mg each) were dissolved in the appropriate volume of gel-filtration buffer (20 mM HEPES–NaOH (pH 7.5), 200 mM NaCl, 20 mM KCl and 20 mM MgCl2), which was used for the purification of ScSqt1.53C and ctSqt1.52C, to obtain 1 mM stock solutions. Concentrations of proteins were determined by measuring the A280 using a NanoDrop Lite spectrophotometer (Thermo Scientific). For determination of the C. thermophilum Sqt1/L10-N binding, 200 μl of ctSqt1.52C (10 μM) was added to the sample cell and 2 μl of 100 μM solutions of the peptides was titrated in at 25 °C. For determination of the S. cerevisiae Sqt1/L10-N binding, 200 μl of ScSqt1.53C (100 μM) was added to the sample cell and 2 μl of 1 mM solutions of the peptides were titrated in at 15 °C. ITC data were processed using the Origin ITC Software (OriginLab) and thermodynamic parameters were obtained by fitting the data to a One Set of Sites binding model."}, "Rpl10 (endogenous)": {"molecular_target": "T1, Rpl10 (endogenous) (S. cerevisiae (endogenous in yeast …, UniProt P41805 1-221))", "T1 sequence (looked up)": "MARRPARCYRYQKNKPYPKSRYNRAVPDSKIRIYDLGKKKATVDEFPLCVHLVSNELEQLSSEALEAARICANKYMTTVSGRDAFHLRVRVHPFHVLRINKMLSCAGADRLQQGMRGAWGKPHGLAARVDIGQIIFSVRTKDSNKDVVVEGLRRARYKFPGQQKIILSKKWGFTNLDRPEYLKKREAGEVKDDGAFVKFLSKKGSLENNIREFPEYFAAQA", "assay": "cell-based or functional assay"}, "Rpl10": {"system": "Rpl10", "assay": "Y2H interaction with Rpl10", "type": "binding, S. cerevisiae", "conditions": "Sqt1 variants; PJ69-4A, HIS3 and ADE2 reporters, 3 days at 30 °C", "procedure": "as §1"}, "[2]": {"molecular_target": "T2, Rps3 (endogenous, nascent) (S. cerevisiae (endogenous in yeast cells)) (UniProt P05750)", "T2 sequence": "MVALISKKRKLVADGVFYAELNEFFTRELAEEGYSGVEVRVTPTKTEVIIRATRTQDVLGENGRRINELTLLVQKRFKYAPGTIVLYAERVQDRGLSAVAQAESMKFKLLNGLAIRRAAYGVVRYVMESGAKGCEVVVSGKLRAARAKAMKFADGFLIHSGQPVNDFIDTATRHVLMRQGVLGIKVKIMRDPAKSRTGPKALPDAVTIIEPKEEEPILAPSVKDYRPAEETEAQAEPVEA"}, "Rpl3 (endogenous)": {"molecular_target": "Rpl3 (endogenous) (S. cerevisiae (endogenous in yeast …, UniProt P14126 1-387))", "sequence (P14126 whole entry)": "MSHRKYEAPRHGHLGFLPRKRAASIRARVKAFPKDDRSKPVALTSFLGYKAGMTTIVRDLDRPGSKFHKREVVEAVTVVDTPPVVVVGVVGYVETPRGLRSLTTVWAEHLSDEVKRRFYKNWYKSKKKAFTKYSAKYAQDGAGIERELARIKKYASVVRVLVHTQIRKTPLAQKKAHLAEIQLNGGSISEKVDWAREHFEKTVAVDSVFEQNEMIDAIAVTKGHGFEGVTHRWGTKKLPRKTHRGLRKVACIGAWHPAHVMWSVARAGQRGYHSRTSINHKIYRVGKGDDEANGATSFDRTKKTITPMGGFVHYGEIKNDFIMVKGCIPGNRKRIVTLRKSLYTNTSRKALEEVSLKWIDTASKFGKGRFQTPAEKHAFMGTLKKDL", "assay": "cell-based or functional assay"}, "[3]": {"molecular_target": "T3, Rpl5 (endogenous, nascent) (S. cerevisiae (endogenous in yeast cells)) (UniProt P26321)", "T3 sequence": "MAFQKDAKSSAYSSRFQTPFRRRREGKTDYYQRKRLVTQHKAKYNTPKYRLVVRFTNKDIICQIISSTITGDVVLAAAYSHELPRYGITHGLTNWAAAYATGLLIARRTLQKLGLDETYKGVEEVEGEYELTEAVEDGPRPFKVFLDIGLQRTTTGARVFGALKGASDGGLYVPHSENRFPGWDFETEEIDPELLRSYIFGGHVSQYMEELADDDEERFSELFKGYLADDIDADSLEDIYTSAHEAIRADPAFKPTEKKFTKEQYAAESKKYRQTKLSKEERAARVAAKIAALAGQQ"}, "[4]": {"assay": "soluble expression in E. coli", "type": "physicochemical", "conditions": "data not shown for Rpl10"}}, "note": "Ends that are not written are not given here."}
{"molecule": "amino acids 1–15 of Rpl3: amino acids 1–15 of Rpl3, Y2H bait fused to G4BD (MSHRKYEAPRHGHLG; also: fused to Gal4 DNA-binding domain; UniProt P14126 1-15, looked up, fragment)", "values": [{"measurement": "Y2H interaction with Rrb1", "setting": "Rrb1", "value": "sufficient to yield a robust Y2H interaction with full-length Rrb1"}]}
{"molecule": "H-MARRPARCYRYCKNKPYPKS-OH (cysteine pairing not given here) [CtL10-N(1-20), N-terminal 20 amino acids of C. thermophilum Rpl10]", "values": [{"measurement": "Kd", "setting": "[1]; 10 μM ctSqt1.52C in cell, 2 μl of 100 μM peptide titrated, 25 °C, 20 mM HEPES–NaOH (pH 7.5), 200 mM NaCl, 20 mM KCl, 20 mM MgCl2, One Set of Sites, read-out: dissociation constant (Kd)", "value": "~442", "unit": "nM"}, {"measurement": "effect of Met1 on the interaction", "setting": "[1]; ctSqt1", "value": "did not abolish the interaction completely"}]}
{"molecule": "B1", "values": [{"measurement": "enrichment of the RPL10 mRNA in the Sqt1-TAP purification (IgG-sepharose pull-down from cycloheximide-treated cells, TEV eluate, real-time qRT–PCR)", "setting": "Rpl10 (endogenous)", "value": "~25", "unit": "fold"}]}
{"molecule": "B2", "values": [{"measurement": "Y2H interaction with Rpl10", "setting": "Rpl10", "value": "abolished the interaction between Sqt1 and Rpl10"}]}
{"molecule": "B3", "values": [{"measurement": "enrichment of the RPS3 mRNA in the Yar1-TAP purification (IgG-sepharose pull-down from cycloheximide-treated cells, TEV eluate, real-time qRT–PCR)", "setting": "[2]", "value": 100, "unit": "fold"}]}
{"molecule": "B4", "values": [{"measurement": "enrichment of the RPL3 mRNA in the NTAP-Rrb1 purification (IgG-sepharose pull-down from cycloheximide-treated cells, TEV eluate, real-time qRT–PCR)", "setting": "Rpl3 (endogenous)", "value": "~100", "unit": "fold"}]}
{"molecule": "B5", "values": [{"measurement": "enrichment of the RPL5 mRNA in the Syo1-FTpA purification (IgG-sepharose pull-down from cycloheximide-treated cells, TEV eluate, real-time qRT–PCR)", "setting": "[3]", "value": 100, "unit": "fold"}]}
{"molecule": "B6", "values": [{"measurement": "soluble expression in E. coli", "setting": "[4]", "value": "expressed as an insoluble protein"}]}
{"molecule": "B7", "values": [{"measurement": "Y2H interaction with Rpl10", "setting": "Rpl10", "value": "sufficient to mediate the interaction both with full-length or the N-terminal residues"}]}
